Reference: patent US20220054419A1

Columns and labels:
Test in all cases: cell-based or functional assay
[1] = target: hemagglutinin (HA) of A/Beijing/262/95 (H1N1) on pseudotyped lentivirus (Influenza virus A/Beijing/262/95 (H1N1))
[2] = target: hemagglutinin (HA) of A/Fort Monmouth/1/47 (H1N1) on pseudotyped lentivirus (Influenza virus A/Fort Monmouth/1/47 (H1N1)) (UniProt A4U7A6)
[3] = target: hemagglutinin (HA) of A/Hong Kong/117/77 (H1N1) on pseudotyped lentivirus (Influenza virus A/Hong Kong/117/77 (H1N1)) (UniProt P18875)
[4] = target: hemagglutinin (HA) of A/Iowa/43 (H1N1) on pseudotyped lentivirus (Influenza virus A/Iowa/43 (H1N1)) (UniProt A4GCK8)
[5] = target: hemagglutinin (HA) of A/New Caledonia/20/99 (H1N1) on pseudotyped lentivirus (Influenza virus A/New Caledonia/20/1999 (H1N1)) (UniProt Q289M7)
[6] = target: hemagglutinin (HA) of A/New Jersey/76 (H1N1) on pseudotyped lentivirus (Influenza virus A/New Jersey/76 (H1N1))
[7] = target: hemagglutinin (HA) of A/New York/146/00 (H1N1) on pseudotyped lentivirus (Influenza virus A/New York/146/00 (H1N1))
[8] = target: hemagglutinin (HA) of A/New York/653/96 (H1N1) on pseudotyped lentivirus (Influenza virus A/New York/653/96 (H1N1))
[9] = target: hemagglutinin (HA) of A/New York/8/06 (H1N1) on pseudotyped lentivirus (Influenza virus A/New York/8/06 (H1N1))
[10] = target: hemagglutinin (HA) of A/Puerto Rico/8/34 (H1N1) on pseudotyped lentivirus (Influenza virus A/Puerto Rico/8/34 (H1N1)) (UniProt P03452)
[11] = target: hemagglutinin (HA) of A/Singapore/6/86 (H1N1) on pseudotyped lentivirus (Influenza virus A/Singapore/6/86 (H1N1)) (UniProt A3DRP0)
[12] = target: hemagglutinin (HA) of A/Solomon Islands/3/06 (H1N1) on pseudotyped lentivirus (Influenza virus A/Solomon Islands/3/06 (H1N1))
[13] = target: hemagglutinin (HA) of A/South Carolina/1/18 (H1N1) on pseudotyped lentivirus (Influenza virus A/South Carolina/1/18 (H1N1)) (UniProt Q9WFX3)

## monoclonal antibody 441D6
[1]
  Neutralization IC50, lentivirus pseudotype neutralization assay: 0.07 µg/mL
[2]
  Neutralization IC50, lentivirus pseudotype neutralization assay: 0.02 µg/mL
[3]
  Neutralization IC50, lentivirus pseudotype neutralization assay: 0.04 µg/mL
[4]
  Neutralization IC50, lentivirus pseudotype neutralization assay: 11.1 µg/mL
[5]
  Neutralization IC50, lentivirus pseudotype neutralization assay: 0.04 µg/mL
[6]
  Neutralization IC50, lentivirus pseudotype neutralization assay: 0.03 µg/mL
[7]
  Neutralization IC50, lentivirus pseudotype neutralization assay: 0.01 µg/mL
[8]
  Neutralization IC50, lentivirus pseudotype neutralization assay: 0.02 µg/mL
[9]
  Neutralization IC50, lentivirus pseudotype neutralization assay: 0.14 µg/mL
[10]
  Neutralization IC50, lentivirus pseudotype neutralization assay: 0.08 µg/mL
[11]
  Neutralization IC50, lentivirus pseudotype neutralization assay: 0.01 µg/mL
[12]
  Neutralization IC50, lentivirus pseudotype neutralization assay: 0.29 µg/mL
[13]
  Neutralization IC50, lentivirus pseudotype neutralization assay: 0.04 µg/mL

## monoclonal antibody FI6v3 (anti-HA stem region)
[1]
  Neutralization IC50, lentivirus pseudotype neutralization assay: 1.01 µg/mL
[2]
  Neutralization IC50, lentivirus pseudotype neutralization assay: 22.2 µg/mL
[3]
  Neutralization IC50, lentivirus pseudotype neutralization assay: 0.09 µg/mL
[4]
  Neutralization IC50, lentivirus pseudotype neutralization assay: 3.4 µg/mL
[5]
  Neutralization IC50, lentivirus pseudotype neutralization assay: 0.09 µg/mL
[6]
  Neutralization IC50, lentivirus pseudotype neutralization assay: 0.36 µg/mL
[7]
  Neutralization IC50, lentivirus pseudotype neutralization assay: 0.08 µg/mL
[8]
  Neutralization IC50, lentivirus pseudotype neutralization assay: 0.15 µg/mL
[9]
  Neutralization IC50, lentivirus pseudotype neutralization assay: > 25 µg/mL
[10]
  Neutralization IC50, lentivirus pseudotype neutralization assay: 0.97 µg/mL
[11]
  Neutralization IC50, lentivirus pseudotype neutralization assay: 0.01 µg/mL
[12]
  Neutralization IC50, lentivirus pseudotype neutralization assay: 0.94 µg/mL
[13]
  Neutralization IC50, lentivirus pseudotype neutralization assay: 4.4 µg/mL

## monoclonal antibody CH65 (anti-receptor binding site of HA)
[1]
  Neutralization IC50, lentivirus pseudotype neutralization assay: 0.01 µg/mL
[2]
  Neutralization IC50, lentivirus pseudotype neutralization assay: 5.86 µg/mL
[3]
  Neutralization IC50, lentivirus pseudotype neutralization assay: 0.97 µg/mL
[4]
  Neutralization IC50, lentivirus pseudotype neutralization assay: > 50 µg/mL
[5]
  Neutralization IC50, lentivirus pseudotype neutralization assay: 0.01 µg/mL
[6]
  Neutralization IC50, lentivirus pseudotype neutralization assay: > 25 µg/mL
[7]
  Neutralization IC50, lentivirus pseudotype neutralization assay: 0.03 µg/mL
[8]
  Neutralization IC50, lentivirus pseudotype neutralization assay: < 0.005 µg/mL
[9]
  Neutralization IC50, lentivirus pseudotype neutralization assay: 0.02 µg/mL
[10]
  Neutralization IC50, lentivirus pseudotype neutralization assay: 0.44 µg/mL
[11]
  Neutralization IC50, lentivirus pseudotype neutralization assay: < 0.005 µg/mL
[12]
  Neutralization IC50, lentivirus pseudotype neutralization assay: 1.3 µg/mL
[13]
  Neutralization IC50, lentivirus pseudotype neutralization assay: 0.57 µg/mL
